One assay has as its target T1, recombinant human IGF-1 (Homo sapiens, UniProt P05019).
T1 construct: human insulin-like growth factor 1, recombinant; also called rhIGF-1; hIGF-1; source: bought: Sigma-Aldrich
Briefly: SPR; Biacore T200, competition in solution: 5 nM hIGF-1 or hIGF-2 incubated 1 h with 0.12-500 nM IGF-TRAP, injected over about 4000 RU MEDI-573 amine-coupled to a CM-5 chip; free ligand read 10 s after end of injection; PBS 0.05% Tween 20, 25 °C. The settings on record: both partners purified.

For a further assay, the target named is T2, recombinant human IGF-2 (human).
T2 construct: human insulin-like growth factor 2, recombinant; also called rhIGF-2; hIGF-2; source: bought: Sigma-Aldrich
Described as above. The settings on record: both partners purified.

T1 sequence (P05019 49-118): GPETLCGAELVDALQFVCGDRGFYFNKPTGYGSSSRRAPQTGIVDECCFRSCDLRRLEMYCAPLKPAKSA

B1: dusigitumab (MEDI-573) (antibody, V domains shown)
VH: QVQLVQSGAEVKKPGASVKVSCKASGYTFTSYDINWVRQATGQGLEWMGWMNPNSGNTGYAQKFQGRVTMTRNTSISTAYMELSSLRSEDTAVYYCARDPYYYYYGMDVWGQGTTVTVSS
VL: QSVLTQPPSVSAAPGQKVTISCSGSSSNIENNHVSWYQQLPGTAPKLLIYDNNKRPSGIPDRFSGSKSGTSATLGITGLQTGDEADYYCETWDTSLSAGRVFGGGTKLTVL
Turning to B1, the binding result with recombinant human IGF-1 and in the assay with recombinant human IGF-2 was “binds” in each case.

(Values after PMC6255772, “Enhanced anti-metastatic bioactivity of an IGF-TRAP re-engineered to improve physicochemical properties” (Scientific Reports, 2018).)
